Results from patent publication US20130184160, “NUCLEOTIDES AND APTAMERS CONTAINING BORONIC ACID GROUPS HAVING BIASED BINDING TO GLYCOSYLATED PROTEINS, AND USES THEREOF” (published 2013).

Legend:
[1] = target: Fibrinogen, deglycosylated (UniProt P02671-2;P02675;P02679 P02671-2:20-644,P02675:31-491,P02679:27-453); test: filter; same buffer; settings: tags: chemically deglycosylated with TFMS; chain copies: 2; label: alpha-32P-dATP
Procedure: (§1) Dissociation constants in solution were determined by equilibrium filtration (Jenison et al., Science 1994, 263, 1425-1429; Huang & Szostak, RNA 2003, 9: 1456-1463, incorporated herein by reference in their entireties). Using this technique, the bound and unbound ligand (DNA) partition between the two portions separated by a membrane. DNA was first amplified into dsDNA using two primers by PCR (25 cycles of 0.5 min at 94° C., 0.5 min at 46° C., and 0.5 min at 72° C., followed by 5 min at 72° C.). The dsDNA product was then split into ssDNA using one primer and α-³²P-dATP by one-round PCR. The ³²P-labeled ssDNA ligand (10 nM) and the protein (1-1000 nM) in the 100 μL of binding buffer were incubated for 15 min at 25° C. prior to loading into the Microcon YM-100 unit (Millipore, Billerica, Mass.). The solution was centrifuged at 13,000 g for 10 sec to saturate the membrane, and the filtrate was transferred back to the unit. The solution was centrifuged for another 20 sec, and the filtrate (about 10 μL) was collected. Aliquots (10 μL) were taken from both the remaining solution and the filtrate, and radioactivity in each aliquot was determined by Beckman LS 6500 liquid scintillation counter. All binding assays were duplicated. The equilibrium dissociation constants (Kd) of the ligand-protein interaction were obtained by fitting the dependence of bound fractions of specific binding on the concentration of the aptamers to the equation Y=B max X/(Kd+X), using the SigmaPlot program.
(§2) To determine the extent to which the aptamers 85A (SEQ ID NO.: 13), 85B (SEQ ID NO.: 14), and 85C (SEQ ID NO.: 15) bind specifically to fibrinogen, their dissociation constants (Kd) were measured using the equilibrium filtration method with radiolabeled α-³²P-dATP. The target substrate to which the aptamer was binding was fibrinogen (FIG. 12A), deglycosylated fibrinogen (FIG. 12B) and periodated fibrinogen (FIG. 12C).

[2] = target: Fibrinogen, periodate-treated (UniProt P02671-2;P02675;P02679 P02671-2:20-644,P02675:31-491,P02679:27-453); test: filter; same buffer; settings: tags: glycans oxidised with sodium periodate; chain copies: 2; label: alpha-32P-dATP
Procedure: as §1, §2

[3] = target: T1, Fibrinogen (glycosylated, untreated) (UniProt P02671-2;P02675;P02679 P02671-2:20-644,P02675:31-491,P02679:27-453); test: filter; same buffer; 64 nM in Table 1; settings: chain copies: 2; label: alpha-32P-dATP
Procedure: as §1, with “The solution was centrifuged for another 20 sec, and the filtrate (about 10 μL) was collected.” left out, “All binding assays were duplicated. The equilibrium dissociation constants (Kd) of the ligand-protein interaction were obtained by fitting the dependence of bound fractions of specific binding on the concentration of the aptamers to the equation Y=B max X/(Kd+X), using the SigmaPlot program.” left out
(§3) To determine the extent to which the aptamers 85A (SEQ ID NO.: 13), 85B (SEQ ID NO.: 14), and 85C (SEQ ID NO.: 15) bind specifically to fibrinogen, their dissociation constants (Kd) were measured using the equilibrium filtration method with radiolabeled α-³²P-dATP. […]

[4] = target: T2, Fetuin (UniProt P12763 P12763:19-359); test: filter; specificity control; settings: label: alpha-32P-dATP
T2 sequence: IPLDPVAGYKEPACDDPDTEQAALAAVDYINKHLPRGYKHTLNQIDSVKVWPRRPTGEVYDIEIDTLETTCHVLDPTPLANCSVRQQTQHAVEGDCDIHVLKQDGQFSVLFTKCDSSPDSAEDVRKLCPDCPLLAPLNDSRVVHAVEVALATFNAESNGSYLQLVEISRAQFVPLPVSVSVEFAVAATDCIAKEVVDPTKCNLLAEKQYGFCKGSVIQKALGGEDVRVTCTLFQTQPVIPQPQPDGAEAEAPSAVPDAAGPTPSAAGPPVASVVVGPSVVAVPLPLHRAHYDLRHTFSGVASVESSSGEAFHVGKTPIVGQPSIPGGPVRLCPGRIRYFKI

[5] = target: Alpha-1 acid glycoprotein (UniProt P02763 P02763:19-201); test: filter; specificity control; settings: label: alpha-32P-dATP
[6] = target: T1, Fibrinogen (glycosylated, untreated); test: filter; same buffer; 102 nM in Table 1; settings: chain copies: 2; label: alpha-32P-dATP
Procedure: as §1, with “The solution was centrifuged for another 20 sec, and the filtrate (about 10 μL) was collected.” left out, “All binding assays were duplicated. The equilibrium dissociation constants (Kd) of the ligand-protein interaction were obtained by fitting the dependence of bound fractions of specific binding on the concentration of the aptamers to the equation Y=B max X/(Kd+X), using the SigmaPlot program.” left out
as §3

[7] = target: T1, Fibrinogen (glycosylated, untreated); test: filter; same buffer; settings: chain copies: 2; label: alpha-32P-dATP
Procedure: as §1, §2

[8] = target: T1, Fibrinogen (glycosylated, untreated); test: filter; same buffer; boronic acid destroyed by peroxide; settings: chain copies: 2; label: alpha-32P-dATP
[9] = target: T1, Fibrinogen (glycosylated, untreated); test: filter; same buffer; 193 nM in Table 1; settings: chain copies: 2; label: alpha-32P-dATP
Procedure: as §1, with “The solution was centrifuged for another 20 sec, and the filtrate (about 10 μL) was collected.” left out, “All binding assays were duplicated. The equilibrium dissociation constants (Kd) of the ligand-protein interaction were obtained by fitting the dependence of bound fractions of specific binding on the concentration of the aptamers to the equation Y=B max X/(Kd+X), using the SigmaPlot program.” left out
as §3

T1 sequence (P02671 other isoform, or with tags, fused parts or gaps, chain 1 of 3): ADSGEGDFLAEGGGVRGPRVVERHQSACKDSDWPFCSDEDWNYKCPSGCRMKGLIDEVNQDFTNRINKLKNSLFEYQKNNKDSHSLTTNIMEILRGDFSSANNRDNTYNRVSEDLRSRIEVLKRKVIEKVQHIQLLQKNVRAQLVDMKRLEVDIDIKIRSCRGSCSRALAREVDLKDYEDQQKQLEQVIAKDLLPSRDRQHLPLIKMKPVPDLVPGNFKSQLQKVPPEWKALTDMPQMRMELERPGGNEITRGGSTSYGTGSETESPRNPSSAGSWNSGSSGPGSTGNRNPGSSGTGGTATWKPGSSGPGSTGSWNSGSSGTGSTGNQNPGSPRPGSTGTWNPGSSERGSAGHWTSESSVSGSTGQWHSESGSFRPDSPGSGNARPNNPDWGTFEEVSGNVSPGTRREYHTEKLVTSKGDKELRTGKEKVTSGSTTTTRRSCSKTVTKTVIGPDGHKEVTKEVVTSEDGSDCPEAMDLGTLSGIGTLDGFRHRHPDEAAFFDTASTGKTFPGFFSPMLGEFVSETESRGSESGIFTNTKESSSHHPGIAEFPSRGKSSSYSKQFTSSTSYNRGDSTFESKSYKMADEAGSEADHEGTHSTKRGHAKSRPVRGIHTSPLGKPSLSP
T1 sequence (P02675 31-491, chain 2 of 3): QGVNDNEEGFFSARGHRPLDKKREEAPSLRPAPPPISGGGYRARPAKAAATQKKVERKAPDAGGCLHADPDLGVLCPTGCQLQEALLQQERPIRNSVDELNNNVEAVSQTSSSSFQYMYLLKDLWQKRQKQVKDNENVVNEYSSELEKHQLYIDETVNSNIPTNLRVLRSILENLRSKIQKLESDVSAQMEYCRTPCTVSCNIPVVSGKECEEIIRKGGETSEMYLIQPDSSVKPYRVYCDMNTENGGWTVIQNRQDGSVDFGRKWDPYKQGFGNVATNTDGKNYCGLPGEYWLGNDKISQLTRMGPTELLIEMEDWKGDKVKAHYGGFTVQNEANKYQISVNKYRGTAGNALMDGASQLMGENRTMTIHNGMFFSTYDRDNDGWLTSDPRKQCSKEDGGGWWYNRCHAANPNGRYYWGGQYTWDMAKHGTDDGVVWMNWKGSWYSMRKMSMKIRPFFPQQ
T1 sequence (P02679 27-453, chain 3 of 3): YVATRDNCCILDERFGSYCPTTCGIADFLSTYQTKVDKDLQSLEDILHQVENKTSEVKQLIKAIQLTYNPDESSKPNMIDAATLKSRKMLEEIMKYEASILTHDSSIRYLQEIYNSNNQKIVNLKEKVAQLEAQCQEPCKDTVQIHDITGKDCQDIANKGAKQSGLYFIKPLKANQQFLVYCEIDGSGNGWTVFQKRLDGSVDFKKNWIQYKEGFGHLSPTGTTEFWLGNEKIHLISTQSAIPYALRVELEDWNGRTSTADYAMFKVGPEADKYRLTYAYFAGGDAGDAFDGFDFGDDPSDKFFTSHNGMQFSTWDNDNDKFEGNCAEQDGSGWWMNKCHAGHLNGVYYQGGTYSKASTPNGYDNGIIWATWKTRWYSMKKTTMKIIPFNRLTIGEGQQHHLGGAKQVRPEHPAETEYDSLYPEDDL
Sequence of Fibrinogen, deglycosylated (P02671 other isoform, or with tags, fused parts or gaps, chain 1 of 3): as the sequence (P02671 other isoform, or with tags, fused parts or gaps, chain 1 of 3) above
Sequence of Fibrinogen, deglycosylated (P02675 31-491, chain 2 of 3): as the sequence (P02675 31-491, chain 2 of 3) above
Sequence of Fibrinogen, deglycosylated (P02679 27-453, chain 3 of 3): as the sequence (P02679 27-453, chain 3 of 3) above
Sequence of Fibrinogen, periodate-treated (P02671 other isoform, or with tags, fused parts or gaps, chain 1 of 3): as the sequence (P02671 other isoform, or with tags, fused parts or gaps, chain 1 of 3) above
Sequence of Fibrinogen, periodate-treated (P02675 31-491, chain 2 of 3): as the sequence (P02675 31-491, chain 2 of 3) above
Sequence of Fibrinogen, periodate-treated (P02679 27-453, chain 3 of 3): as the sequence (P02679 27-453, chain 3 of 3) above
Sequence of Alpha-1 acid glycoprotein (P02763 19-201, one chain of several): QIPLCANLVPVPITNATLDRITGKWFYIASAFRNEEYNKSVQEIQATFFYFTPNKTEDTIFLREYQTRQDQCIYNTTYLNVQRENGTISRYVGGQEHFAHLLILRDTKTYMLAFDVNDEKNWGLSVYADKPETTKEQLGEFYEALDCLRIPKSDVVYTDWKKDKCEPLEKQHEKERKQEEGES

B1: 85B TTP (ssDNA)
DNA: CCTTCGTTGTCTGCCTTCGTAGGACCGCAGACATCGACGCAGGGAAATTCCGCAAGTCCAGCCAAATGCCACCCTTCAGAATTCGCACCA
Kd [1]: 140 nM
Kd [2]: 130 nM
Kd [3]: 63.8 nM

B2: 85A TTP (ssDNA)
DNA: CCTTCGTTGTCTGCCTTCGTAGCGGATCGAATTACGCGTTAACGGCAACCGATAACGGGACCGATTGCACACCCTTCAGAATTCGCACCA
Kd [4]: 1600 nM
Kd [5]: 600 nM
Kd [1]: 60.2 nM
Kd [2]: 67.4 nM
Kd [6]: 102 nM

B3: 85A M-TTP (ssDNA)
DNA: B2 DNA
modifications: T positions from M-TTP (alkyne-modified dU without boronic acid)
Kd [7]: 138 nM

B4: 85A B-TTP H2O2-treated (ssDNA)
DNA: B2 DNA
modifications: B-TTP positions with boronic acid oxidised by peroxide
Kd [8]: 173 nM

B5: 85C TTP (ssDNA)
DNA: CCTTCGTTGTCTGCCTTCGTAGTCGACTCTGACGCATGGACGTATCCTGTGCGTATGCATTATGAAGCACACCCTTCAGAATTCGCACCA
Kd [9]: 122 nM
Kd [1]: 256 nM
Kd [2]: 321 nM
